In test [1] the target is human UBA6 (full-length, amino acid residues 1-1052) (human) (UniProt A0AVT1).
Another test has as its target human UBA1 (human) (UniProt P22314). The test can be described thus: BLI; His-tagged E1 ligands on Anti-Penta-His (His1K) biosensors; analyte BIRC6^UBC or BIRC6^(UBCΔinsertion loop) at 40-3240 nM; 50 mM HEPES, pH 7.4, 150 mM NaCl, 0.05% Tween-20, 10 mM imidazole; 25 °C; steady-state 1:1 fit. (Biolayer interferometry detects binding as a change in optical thickness at a sensor tip.)

The target in test [2] is oxyester-linked UBA6-Ub conjugate (UBA6 C625S charged with ubiquitin) (human) (UniProt A0AVT1). The test is described as above.

Chain of human UBA6 (full-length, amino acid residues 1-1052) (human) (A0AVT1 whole entry, the tested form may be a part): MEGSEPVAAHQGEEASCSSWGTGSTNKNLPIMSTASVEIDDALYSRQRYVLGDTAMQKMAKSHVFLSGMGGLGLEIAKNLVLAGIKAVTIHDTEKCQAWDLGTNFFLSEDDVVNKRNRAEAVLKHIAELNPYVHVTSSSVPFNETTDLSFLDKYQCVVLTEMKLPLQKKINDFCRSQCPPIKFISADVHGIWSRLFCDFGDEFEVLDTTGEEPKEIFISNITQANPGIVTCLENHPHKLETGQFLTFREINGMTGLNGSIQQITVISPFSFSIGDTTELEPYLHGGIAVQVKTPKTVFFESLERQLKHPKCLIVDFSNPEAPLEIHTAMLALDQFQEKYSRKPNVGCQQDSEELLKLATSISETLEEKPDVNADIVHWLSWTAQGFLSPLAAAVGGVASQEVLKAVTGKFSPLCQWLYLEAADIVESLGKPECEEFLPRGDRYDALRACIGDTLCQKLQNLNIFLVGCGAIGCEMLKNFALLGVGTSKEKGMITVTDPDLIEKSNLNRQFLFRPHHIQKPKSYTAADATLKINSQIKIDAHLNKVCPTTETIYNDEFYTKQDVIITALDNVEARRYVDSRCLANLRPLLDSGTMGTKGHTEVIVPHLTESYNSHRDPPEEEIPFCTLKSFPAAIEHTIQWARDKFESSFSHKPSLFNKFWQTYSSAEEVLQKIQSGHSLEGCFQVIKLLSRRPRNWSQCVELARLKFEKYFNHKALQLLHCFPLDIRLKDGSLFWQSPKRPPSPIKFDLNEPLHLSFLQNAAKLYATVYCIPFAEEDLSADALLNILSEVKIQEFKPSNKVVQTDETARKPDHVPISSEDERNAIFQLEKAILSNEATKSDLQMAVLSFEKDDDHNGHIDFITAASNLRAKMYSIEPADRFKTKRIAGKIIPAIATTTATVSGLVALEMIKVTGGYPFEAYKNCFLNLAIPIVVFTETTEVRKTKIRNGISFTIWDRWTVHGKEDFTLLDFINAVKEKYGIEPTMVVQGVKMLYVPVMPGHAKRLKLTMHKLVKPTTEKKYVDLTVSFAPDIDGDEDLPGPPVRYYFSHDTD
Chain of UBC domain of BIRC6 (residues 4520-4857) (Q9NR09 4520-4857): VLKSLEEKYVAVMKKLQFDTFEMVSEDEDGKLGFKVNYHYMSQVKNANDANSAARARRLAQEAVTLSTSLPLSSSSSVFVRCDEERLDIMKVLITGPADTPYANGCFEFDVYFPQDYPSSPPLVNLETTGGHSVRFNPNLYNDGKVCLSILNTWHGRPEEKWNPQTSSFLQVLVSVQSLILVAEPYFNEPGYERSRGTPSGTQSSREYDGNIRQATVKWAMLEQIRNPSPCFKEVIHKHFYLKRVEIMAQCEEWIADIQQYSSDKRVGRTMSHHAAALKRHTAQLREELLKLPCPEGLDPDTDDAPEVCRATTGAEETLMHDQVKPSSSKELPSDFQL

Regarding “BIRC6^UBC Y4711G (from UniProt Q9NR09 4520-4857) (domain or fragment)”, the reduction of BIRC6^UBC~Ub formation by UBA6 relative to WT (E1–E2 transthioesterification assay, 2 min) in test [1] came out at 60%. Consider “BIRC6^UBC N-terminal extension mutant (A4569R) (from UniProt Q9NR09 4520-4857)”, for which the reduction of Ub charging of BIRC6^UBC by UBA6 relative to WT (E1–E2 transthioesterification assay, 2 min) in test [1] was 25%. In test [1], “BIRC6^UBC β4 loop mutant (Q4634A) (from UniProt Q9NR09 4520-4857) (domain or fragment)” came in with a reduction of Ub charging of BIRC6^UBC by UBA6 relative to WT (E1–E2 transthioesterification assay, 2 min) of 50%.

One may read the Kd as the constant that tells how readily two partners part at equilibrium. Read a high Kd as weaker binding. Consider “BIRC6^UBC with the insertion loop deleted (from UniProt Q9NR09 4520-4857) (domain or fragment)”, for which, in the test with human UBA1 (human), the Kd was 1.47 µM. In test [2], “UBC domain of BIRC6 (residues 4520-4857) (from UniProt Q9NR09 4520-4857) (domain or fragment)” displayed a Kd of 2.41 µM. As to “BIRC6^UBC N-helix mutant (R4576A-Q4580A-V4583G) (from UniProt Q9NR09 4520-4857) (domain or fragment)”, the reduction of Ub charging of BIRC6^UBC by UBA6 relative to WT (E1–E2 transthioesterification assay, 2 min) in test [1] was 25%. Take “BIRC6^UBC C-terminal extension mutant (R4745A-R4799A-T4789A) (from UniProt Q9NR09 4520-4857) (domain or fragment)”: the reduction of Ub charging of BIRC6^UBC by UBA6 relative to WT (E1–E2 transthioesterification assay, 2 min) in test [1] is 50%.

The values above are taken from PMC13623948.
